Measured values taken from the DeepSol protein solubility set.

Assay: soluble on expression in E. coli; label from the status in PepcDB or PDB records

Sequence | soluble on expression in E. coli
MAHHHHHHSLENKGTNLTPEQALDRLEELYEQSVNALREAIADYVDNGTLPDPHARLNGLFVYPSLSVSWDGATPNPPKTRAFGRFTHPGCYTTTVTRPALFRAYLLEQLNLVYHDYGAHIAVEASHHEIPYPYVIDGSALTLDRSMSAGLTRHFPTTELAQIGDETADGLFHPGEFYPLSHFDARRVDFSLARLRHYTGTPVEHFQPFVLFTNYTRYVDEFVRWGCSQILDPDSPYIALSCAGGIWITAETEAPEEAISDLAWKKHQMPAWHLVTADGQGITLVNIGVGPSNAKTICDHLAVLRPDVWLMIGHCGGLRESQAIGDYVLAHAYLRDDHVLDAVLPPDIPIPSIAEVQRALYDATKAVSGMPGEEVKQRLRTGTVVTTDDRNWELRYSASALRFNLSRAVAIDMESATIAAQGYRFRVPYGTLLCVSDKPLHGEIKLPGQANRFYEGAISEHLQIGIRAIDLLRAEGDRLHSRKEG | soluble
MAHHHHHHSLIDCRYYQQNECRSCQWLEIPCSQQLTEKQYHLKQQLISINYDEAQWVAPFQSNQQGFRNKAKMVVSGSVERPILGILKNPNDPQSAIDLCDCPLYPTHFSAIFSILKDFIGRAGLVPYNIAKQKGELKYILLTESIATEKLMLRFVLRTENKLPLIRRELPKLLEKLPHLEVISINLQPQHAAILEGEQEIFLTEQQFLPENFNGIPLFIRPRGFFQTNPKVAAGLYATAQQWVAEFPIYNLWDLFCGVGGFGLHCAKALQEKWGKPIKLTGIEISSSAILAASHSAKILGLEHVNFQSLDAASVIENKNENKPDLVIVNPPRRGIGKELSEFLNQIQPHFILYSSCNAMTMGKDLQHLTCYKPLKIQLFDMFPQTSHYEVLVLLEREG | not soluble
MAHHHHHHSLMLKKNDIIQVAISDLSHEGAGVAKHDGFVFFVDNALPEEVIDMRVLKVNKNSGFGKVEAYHYLSSARNADVNLTYLRTGIADLGHLTYEDQLTFKKKQVQDSLYKIAGISDVTVESTIGMTEPLAYRNKAQVPVRRVNGQLETGFFRKHSHDLIPISDYYIQDKEIDRLINFTRDLLRRFDIKPYDETEQTGLLRNIVVRRGHYSGEMMLVLVTTRPKVFRVDQVIEKIVEAFPAVVSIIQNINDKNTNAIFGKDFKTLYGKDTITDSMLGNNYAISAQSFYQVNTVMAEKLYQTAIAFSDLSKDDIVIDAYSGIGTIGLSFAKTVKAVYGVEVIEAAVRDAQQNAALNGITNAYFVADTAEHAMATWAKDGIKPSVILVDPPRKGLTESFIQASVAMGPQKITYVSCNPATMARDIKRYQELGYKLAKVQPVDLFPQTHHVECVVLLIKEEG | not soluble
MAHHHHHHSLNDELKNKSGKVKVMYVRSDDDSDKRTHNPRTGKGGGRPAKSRTDGGRRPARDERNNQSRDRKHETSPWRTVSRAPGDETPEKVDHGGISGKSFIDPEVLRRQRAEETRVYGENACQALFQSRPDAIVRAWFIQSVTPRFKEALRWMAANRKAYHVVDEAELAKASGTEHHGGVCFLIKKRNGTTVKQWVKQAADQDCVLALEDVANPHNLGGMMRSCAHFGVKGVVVQDAALLESGAAIRTAEGGAEHVQPITGESIVDVLDDFRQAGYTVVTTSSDRGQALFSTTLPEKMVLVLGREYDYLPEAAREPDDLCVKINGTGNVESLNVSVATGVLLAEWWRQNKAEG | soluble
MAHHHHHHSLQTGIPALPPIAQPLPVPAPAPVTPPAPTVPVPQEPAPVPQPPMPQPSVPQTPAPQKPVTPRPAPAPSRAPLLIQARANVPALVAGKKTTVPVLKTLTIPAERAAQLRQRGEVSASLQADLDTFLKSLAAPRDARFEQQDDGQWAVVQPNGLKVDAQATRAAVAKVLRDPRGVSANVVVTGQVAPQRTLDFFASRGITTFLATGFTSYYGSSPERVKNIHVGAQNFKDRLFEGDVFSFNKFIGPVSERNGYVPGLVIAGDQTASGVGGGICQVSTTVFRTLYGAGLGIVQRQNHSYQVFYYDPQGLDATIYQPQLDLKFANTTGGPIWFQTEWDDQEATLTITAFGQARDYQVQVDAPKTLKTVAPPKDRLIPDASLPAGQRKQVDWAAPGATIEVTRRFTRGGKTFKQDTLRSVYRPWPNIFRVGTKKEG | not soluble
MAIHVEHVGVLERAREVSRLEDIITEDNEDIEAEMPKMRDDPAGKEARFLQATDEMSAALTQFMKKKIYEEQLANFLDGEEYVLEDQPIEKTDKVMEALKAATTHDYEVYSFAKKLFPDESDLVVVLRAILRKKQISENVRLNAEALLRKVNQETTKKFINSGINSALKAKLFGQALSLNPKLLRASYRQFLMAEDDAVDTYVEWIGSYGYQNRMLVTKFIKETLFSDINALDASCSSLEFGMFLNKLSQLLSLQSAEALFLKTLMNNPIIKKFISAEDYWIFFLISLIKFPETAEELLNNALVTLPADANYKDKTLLLKAIYSGCTNLPFSLFINNEQLLEIRECCKQAIKVTFAAELFDTQNCNKKQNKKPWKKVMFNV | not soluble
MAIQHPDIQPAVNHSVQVAIAGAGPVGLMMANYLGQMGIDVLVVEKLDKLIDYPRAIGIDDEALRTMQSVGLVDDVLPHTTPWHAMRFLTPKGRCFADIQPMTDEFGWPRRNAFIQPQVDAVMLEGVSRFPNVRCLFSRELEAFSQQDDEVTLHLKTAEGQREIVKAQWLVACDGGASFVRRTLNVPFEGKTAPNQWIVVDIANDPLSTPHIYLCCDPVRPYVSAALPHAVRRFEFMVMPGETEEQLREPQNMRKLLSKVLPNPDNVELIRQRVYTHNARLAQRFRIDRVLLAGDAAHIMPVWQGQGYNSGMRDAFNLAWKLALVIQGKARDALLDTYQQERRDHAKAMIDLSVTAGNVLAPPKRWQGTLRDGVSWLLNYLPPVKRYFLEMRFKPMPQYYGGALMREGEAKHSPVGKMFIQPKVTLENGDVTLLDNAIGANFAVIGWGCNPLWGMSDEQIQQWRALGTRFIQVVPEVQIHTAQDNHDGVLRVGDTQGRLRSWFAQHNASLVVMRPDRFVAATAIPQTLGKTLNKLASVMTLTRPDADVSVEKVA | soluble
MAISQFFEKIDRYYQKNLKEYEFSEEYSDISFNTFLYLRKINSLGNPTMSELAKAMEVSKPSASNMVSKMTEKGLVETGASPKDGRVCLLGLTDKGKKVIEIENGADMKFFEKIREILDEEELEVLERIFEKIAAGLEGEKHDR | not soluble
MAKDLLLEIGLEEMPAHVVTPSRIQLEEKVIKFLDEHHLDYETVQSFATPRRLAVKVTAIPEKQADVEEEVKGPAKKIALDAEGNWSKAAQGFVRGQGVTTEDIVFKELNGVEYVYVTKFTKGQSAKEVLTKLNDVITSLTFPVTMHWANYDFEYIRPIHWIVALLDDEVIPFKVLDVTTGQTSRGHRFLGDDVTFQHANEYEAKLKEQFVVVQPNERKQMIVDQANALAAEKNWQLALDEELLEEVTNLVEYPTAFVGSFDEKYLSVPDEVLVTSMKEHQRYFDVRNDQGLLMPHFIAVRNGDNVHLENVIKGNEKVLIARLEDAEFFYNEDKKLTIEACVEKLKNVTFHEKIGSIYEKMQRVALIAQIIGRKVGLSEDELEDLKRASEIYKFDLVTNMVGEFPELQGIMGEKYALLQGEKPAVATAIREHYLPTSSEGELPETAIGAVLALADKLDSVFSFFSVGMIPTGSNDPYALRRQTYGVIRIIEDKGWTFPLVQLQTEVDEAVNQDVEKYGVLLNEGQAEVVEFVKARLRQLLMTKNVRHDIIDAVVSAEQADLSKLFASANILKSRFEDQDFKPSMEALTRVINLAKKGQELLGDTEEGIDPSLFENKAEKELYQAVNDLSEAFATRTIAENYEALVNLRPLIDAYFNETMVMVEDEKVKQNRLKQLMQIAKMALSIASLDLLIVK | not soluble
MAKIGFIGFGSMASLIATKIIETEVATPEEIILYSNSKNEHFNQFYTKYPTAELADNEAEIFTKADHSFVCKLPLAVLPLMKDCAAVLTPDRHVVSIAAGVSTSDIIEITPGLQVSKLIPSLTTAVNVGTTLIAHAETVNQTNTSWLETTFEHFGHVMTIREENMDIASDLTSSSPGIIAAIFEQFVEAALRRSSLSDAEVFQMINFALAGTSKLLVEEDYTFSGLIQRVATKDGTTAEGVELSKAQLPNFFDELLDRTQNKYASSEKEIQAQKRELLSLEHHHHHH | soluble
MAKILVLYYSMYGHIETMAHAVAEGAKKVDGAEVIIKRVPETMPPEIFAKAGGKTQNAPVATPQELADYDAIIFGTPTRFGNMSGQMRTFLDQTGGLWASGSLYGKLGSVFSSTGTGGGQEQTITSTWTTLAHHGMVIVPIGYAAQELFDVSQVRGGTPYGATTIAGGDGSRQPSQEELSIARYQGEYVAGLAVKLNG | not soluble
MAKKEIEPKTEQAKRLRLIRKSLQLHRDQIATRLGINKAIYDHAERGTTFPNVEFLTALSQQLKVNLNWFITGNGEMFTDMAKAKAAGFKPQAIPAGLMKRLGHLAYTTYRDAKITLPPEDVAELAAGLYGKLQELIYNINDMEEVEATLPLLKLHLKRQVEAEKAH | not soluble
